Measured values as given in the supplement of paper PMC10724198.
± gives the standard deviation of the averaged measurements.

How the values were obtained:
[1] = system: Saccharomyces cerevisiae; experiment: protein stability index of tFT-peptide fusion (C-terminal peptide) (PSI (0-1 scale)); higher = more stable (slower turnover)
Procedure: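 MPS profiling in S. cerevisiae of the tFT-X12 degron library: putative degron peptides plus stable controls, 12 aa, fused to the C-terminus of a sfGFP-mCherry timer. Cells are FACS-sorted into 8 mCherry/sfGFP bins and deep-sequenced. PSI runs from 0 (unstable) to 1 (stable). Backgrounds are wild type, das1Δ and doa10Δ at 30 °C, and wild type, das1Δ, cdc34-1 and cdc53-1 at 37 °C; 2-3 technical replicates each.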

[2] = system: Saccharomyces cerevisiae; experiment: as above; details: genetic background: wild type; temperature: 30 C
[3] = genetic background: cdc34-1, temperature: 37 C
[4] = genetic background: cdc53-1, temperature: 37 C
[5] = genetic background: das1 deletion, temperature: 30 C
[6] = genetic background: das1 deletion, temperature: 37 C
[7] = genetic background: doa10 deletion, temperature: 30 C
[8] = genetic background: wild type, temperature: 30 C
[9] = genetic background: wild type, temperature: 37 C
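Note: PSI is a weighted mean of sequencing reads over stability bins, variants kept only with over 10 reads, mCherry proximal and sfGFP distal, peptide attached via GGGS linker.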

Sequence | protein stability index [1, 3] | protein stability index [1, 4] | protein stability index [1, 5] | protein stability index [1, 6] | protein stability index [1, 7] | protein stability index [1, 8] | protein stability index [1, 9] | protein stability index [2]
RRLRPQTVAFLS | 0.593 ± 0.012 | 0.717 ± 0.03 | 0.676 ± 0.021 | 0.704 ± 0.028 | 0.159 ± 0.0046 | 0.176 ± 0.025 | 0.278 ± 0.0083 | 0.231 ± 0.04
GKKKREWKKNRI | 0.6893 ± 0.00074 | 0.733 ± 0.0097 | 0.645 ± 0.022 | 0.711 ± 0.013 | 0.217 ± 0.026 | 0.257 ± 0.041 | 0.552 ± 0.0071 | 0.382 ± 0.021
AVVCSRLVLFCL | 0.591 ± 0.042 | 0.609 ± 0.021 | 0.53 ± 0.016 | 0.6322 ± 0.0018 | 0.433 ± 0.018 | 0.446 ± 0.025 | 0.588 ± 0.021 | 0.512 ± 0.026
GVLFHIVLHFMV | 0.24 ± 0.045 | 0.277 ± 0.01 | 0.255 ± 0.028 | 0.391 ± 0.0053 | 0.199 ± 0.017 | 0.194 ± 0.023 | 0.305 ± 0.029 | 0.27 ± 0.061
FGFWGVVSCCNA | 0.559 ± 0.045 | 0.566 ± 0.03 | 0.472 ± 0.02 | 0.599 ± 0.0011 | 0.459 ± 0.01 | 0.477 ± 0.011 | 0.5833 ± 0.0054 | 0.63 ± 0.18
GVFLVWWVGFWV | 0.257 ± 0.025 | 0.401 ± 0.021 | 0.25 ± 0.035 | 0.431 ± 0.014 | 0.223 ± 0.0082 | 0.238 ± 0.029 | 0.455 ± 0.047 | 0.374 ± 0.057
VFIVVEFRLSLY | 0.122 ± 0.019 | 0.243 ± 0.074 | 0.174 ± 0.038 | 0.3023 ± 0.0029 | 0.1496 ± 0.0014 | 0.17 ± 0.0089 | 0.263 ± 0.0037 | 0.231 ± 0.073
HGVRLHTVWVGG | 0.55 ± 0.029 | 0.559 ± 0.026 | 0.413 ± 0.011 | 0.597 ± 0.0065 | 0.347 ± 0.0076 | 0.4 ± 0.033 | 0.5437 ± 0.005 | 0.4918 ± 0.0038
VFFCLFVLFLSG | 0.302 ± 0.0038 | 0.397 ± 0.0068 | 0.264 ± 0.043 | 0.437 ± 0.0073 | 0.251 ± 0.0072 | 0.282 ± 0.015 | 0.408 ± 0.021 | 0.423 ± 0.18
GRWVLALCLVCG | 0.165 ± 0.0068 | 0.199 ± 0.0044 | 0.202 ± 0.026 | 0.312 ± 0.0066 | 0.164 ± 0.0086 | 0.194 ± 0.026 | 0.273 ± 0.0044 | 0.289 ± 0.0051
LDLSSVFILYFN | 0.599 ± 0.041 | 0.6735 ± 0.0021 | 0.518 ± 0.0058 | 0.709 ± 0.048 | 0.2653 ± 0.0025 | 0.28 ± 0.028 | 0.54398 ± 0.00036 | 0.374 ± 0.022
LFSTRRWISVCA | 0.0208 ± 0.0016 | 0.0362 ± 0.013 | 0.134 ± 0.035 | 0.127 ± 0.011 | 0.0486 ± 0.012 | 0.054 ± 0.0027 | 0.0577 ± 0.015 | 0.0789 ± 0.016
SGCWGRRLWFFN | 0.668 ± 0.04 | 0.791 ± 0.018 | 0.66 ± 0.037 | 0.7567 ± 0.0052 | 0.189 ± 0.018 | 0.235 ± 0.016 | 0.453 ± 0.011 | 0.325 ± 0.065
FVLLSVCFFGCL | 0.306 ± 0.011 | 0.4219 ± 0.0028 | 0.336 ± 0.024 | 0.495 ± 0.017 | 0.301 ± 0.0069 | 0.327 ± 0.004 | 0.438 ± 0.044 | 0.442 ± 0.024
SLRKRILCRFEY | 0.6572 ± 0.0064 | 0.708 ± 0.011 | 0.655 ± 0.012 | 0.7348 ± 0.0056 | 0.368 ± 0.041 | 0.4388 ± 0.0014 | 0.599 ± 0.023 | 0.511 ± 0.023
LLCSLGFRFSLF | 0.651 ± 0.033 | 0.728 ± 0.011 | 0.651 ± 0.019 | 0.725 ± 0.019 | 0.289 ± 0.0056 | 0.328 ± 0.044 | 0.546 ± 0.038 | 0.377 ± 0.034
VVACCVVFWVLP | 0.232 ± 0.017 | 0.469 ± 0.042 | 0.27 ± 0.028 | 0.481 ± 0.016 | 0.231 ± 0.011 | 0.292 ± 0.022 | 0.507 ± 0.013 | 0.437 ± 0.086
RTALSSPRPALL | 0.6896 ± 0.0052 | 0.7635 ± 0.0053 | 0.701 ± 0.017 | 0.75 ± 0.0094 | 0.7131 ± 0.0061 | 0.723 ± 0.011 | 0.733 ± 0.0077 | 0.7799 ± 0.006
SFFVCAGFWVLC | 0.419 ± 0.0091 | 0.511 ± 0.081 | 0.347 ± 0.025 | 0.539 ± 0.049 | 0.248 ± 0.011 | 0.289 ± 0.016 | 0.456 ± 0.0091 | 0.363 ± 0.024
YYKGGYLYLRLS | 0.398 ± 0.031 | 0.4395 ± 0.0037 | 0.454 ± 0.029 | 0.607 ± 0.035 | 0.171 ± 0.0093 | 0.15 ± 0.018 | 0.316 ± 0.036 | 0.253 ± 0.015
FFLKPVPSLFLC | 0.388 ± 0.015 | 0.5971 ± 0.005 | 0.519 ± 0.021 | 0.6657 ± 0.0034 | 0.0796 ± 0.014 | 0.0677 ± 0.0064 | 0.0767 ± 0.016 | 0.14 ± 0.014
EVGFHRRWVALS | 0.612 ± 0.052 | 0.7235 ± 0.007 | 0.65 ± 0.015 | 0.737 ± 0.019 | 0.114 ± 0.02 | 0.141 ± 0.016 | 0.275 ± 0.053 | 0.189 ± 0.0082
CTLVVGLFVLVV | 0.168 ± 0.02 | 0.315 ± 0.022 | 0.209 ± 0.034 | 0.375 ± 0.024 | 0.168 ± 0.0065 | 0.216 ± 0.028 | 0.322 ± 0.0064 | 0.362 ± 0.0094
FLSCSRRPLRCW | 0.40972 ± 0.00036 | 0.445 ± 0.048 | 0.303 ± 0.035 | 0.4962 ± 0.00098 | 0.273 ± 0.0051 | 0.301 ± 0.032 | 0.469 ± 0.021 | 0.463 ± 0.027
PFFCFLLFCFSL | 0.477 ± 0.032 | 0.498 ± 0.0033 | 0.439 ± 0.033 | 0.5465 ± 0.00098 | 0.459 ± 0.0093 | 0.419 ± 0.027 | 0.5292 ± 0.0024 | 0.455 ± 0.037
IRSLRPFLLPLF | 0.645 ± 0.016 | 0.731 ± 0.018 | 0.643 ± 0.022 | 0.7184 ± 0.0066 | 0.283 ± 0.004 | 0.306 ± 0.03 | 0.543 ± 0.0084 | 0.4088 ± 0.004
WDLYFSVVYRVV | 0.35 ± 0.04 | 0.484 ± 0.017 | 0.403 ± 0.015 | 0.491 ± 0.017 | 0.0435 ± 0.021 | 0.0544 ± 0.0073 | 0.093 ± 0.0024 | 0.114 ± 0.0017
FWLFAFVIRKHI | 0.286 ± 0.019 | 0.404 ± 0.013 | 0.324 ± 0.033 | 0.511 ± 0.007 | 0.10098 ± 0.0001 | 0.089 ± 0.0045 | 0.0641 ± 0.012 | 0.2057 ± 0.00034
LYLCLVSPVVVL | 0.156 ± 0.011 | 0.172 ± 0.0061 | 0.226 ± 0.024 | 0.296 ± 0.0064 | 0.184 ± 0.011 | 0.204 ± 0.032 | 0.2571 ± 0.0014 | 0.296 ± 0.029
GILILRLILCLF | 0.251 ± 0.027 | 0.302 ± 0.047 | 0.248 ± 0.033 | 0.385 ± 0.023 | 0.171 ± 0.0058 | 0.189 ± 0.018 | 0.24 ± 0.012 | 0.227 ± 0.0044
